Assay results reported in the supplement of paper PMC12042874.
± gives the uncertainty stated by the source.

Assay: amyloid nucleation score (Sup35N fusion, yeast selection) (log enrichment); library NNK2; higher = more nucleation; inactive = no reads after selection
Summary of the method: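 Plasmid inserts were Illumina-sequenced at input and output from psi-negative yeast expressing Sup35N fused to peptides of 20 random codons. The yeast were induced with 100 μM copper sulfate for 24 hours and grown 7 days at 30°C on medium lacking adenine and uracil, and sequences with under 100 input reads were excluded. Nucleation score is the DiMSum log enrichment of output over input reads, centred on the mode score of non-aggregating sequences.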

Substance	amyloid nucleation score
VYFSSSIADKFYNLISVRFI	0.833 ± 0.8
VYGPTVNFK	0.761 ± 0.25
VYIAAHTCIC	4.93 ± 0.079
VYIILSFSIGMGEFNMISGG	-0.587 ± 0.79
VYIIVFRIWLPLHFWSSTLM	-0.354 ± 0.56
VYKYNISFLEPKHESQAWNK	0.042 ± 0.63
VYLVRKWRSGWRYLTRVI	1.24 ± 0.41
VYMHASCSERSMDESRNRVD	inactive
VYTFK	0.667 ± 0.66
VYTRKCGLAFRVSSGT	0.574 ± 0.5
VYTRMKITVGFKYLYN	1.24 ± 0.45
VYTTLPYSFGGYNCYMSSRL	inactive
VYWCLITFNHEDAHSYCFL	2.22 ± 0.26
VYYGVYLMSCFVAGGYFYCF	3.75 ± 0.061
VYYIYQLEWSDVFFSAYGVH	-0.072 ± 0.76
VYYLDSV	0.978 ± 0.74
VYYLVSLGLT	1.91 ± 0.14
VYYSNTTTRSCSEMQVVFFF	-1.13 ± 0.41
WALYVGGANRFFMCQWVNLG	2.26 ± 0.13
WATFRPD	0.31 ± 0.54
WCAPWPWVKCLFTSPVFSVV	0.712 ± 0.4
WCLMVGFMFMCRYDGNQSDG	2.98 ± 0.051
WCRWMGMH	0.543 ± 0.47
WCSVLRDNKLSR	-1.09 ± 0.45
WCWLEYCCTIDSLIFLFEN	4.09 ± 0.12

Substance	amyloid nucleation score
WDLLRVM	0.312 ± 0.8
WDNLNDFHN	-1.35 ± 1.1
WDNWDPVAAP	inactive
WDYVQVCPNLLVRTLLFMFA	-0.81 ± 0.32
WEASSFKVSGLSGSHHPSKG	2.3 ± 0.13
WEIRNAYVQVT	-0.178 ± 0.39
WEITLVNGSWVLESRTQRHF	4.06 ± 0.079
WFAGFMCRVLACTFSALKLS	-0.917 ± 0.78
WFFFFNGPAYVFNLNIVNFS	7.035 ± 0.06
WFGYMALPR	4.63 ± 0.064
WFISPKDKGRASIHLNEYRW	3.97 ± 0.045
WFMERVFYNSTNSTQLFEWV	inactive
WFYKVSSA	-0.481 ± 0.55
WFYNVATYTHVAANTRVMKC	0.231 ± 0.44
WGAEILAHVGPSHEYSR	-0.175 ± 0.49
WGCCGDLVYAIS	0.194 ± 0.62
WGRLGARCYRRILVPGRCLE	-0.756 ± 0.48
WGRWAVSFYGLREDSLLSLG	-0.324 ± 0.53
WGSGNGLVGLHYLASLFERN	0.847 ± 0.58
WGSISNIFYLLRVLYCLSMS	1.79 ± 0.26
WGTCMCRKWASHFDREC	2.55 ± 0.17
WGVFWLPH	-0.807 ± 0.56
WGWEIFIVWTWLRGVILYVL	-0.602 ± 1.1
WHEWCEGCGRNCSWEVGQDR	0.435 ± 0.23
WHFSRSWDPKFWRRAHSWWE	0.276 ± 0.5

Substance	amyloid nucleation score
WIITNCSLFFSVALS	6.79 ± 0.085
WILVGFIIGTKWVSRPTTDC	3.61 ± 0.056
WIVRFSGCCDVGWTSGVRSY	6.17 ± 0.075
WIYIIVSPFMRWLESSLLSA	inactive
WLGRCVNNNLNDVCDFQT	-1.17 ± 0.39
WLKYMSCSLAKSQVSACVSV	0.219 ± 0.46
WLLKFSVGLNFFSEFNVLRC	-1.43 ± 0.75
WLLVDYAASCRGKWCHEMHG	0.284 ± 0.19
WLLVYYISARVQQSADNKRW	-1.02 ± 1
WLPKVWLRVRWFNEEKRDGG	-0.123 ± 0.54
WLVKLSGDMF	2.54 ± 0.073
WLYDPSIMWNIGWVSNMMHQ	-0.454 ± 0.24
WLYLFKGWSNLDSESFTMTS	-0.943 ± 0.78
WMCRSTAMIHSRSDCV	6.328 ± 0.052
WNAALKYKAHVGIDVSRCVP	0.535 ± 0.33
WPNFV	-0.995 ± 0.76
WQRMDGIGELILMCCRYSFL	5.819 ± 0.033
WQSSSILIASSCVRSPGLPV	0.27 ± 0.46
WQYFFGMYNPSGGRRPGISG	-0.373 ± 1
WRAKAFSEKFIERRWDVGMN	-1.18 ± 0.62
WRALPKYGYCLSLGVYEETR	-0.102 ± 0.55
WRIYQDTFCLSIS	3.87 ± 0.076
WRVSSSI	-0.706 ± 0.76
WRYITCHS	1.59 ± 0.55
WSGKRAFNYINGGLGMAKEL	4.11 ± 0.062

Substance	amyloid nucleation score
WSLLEF	inactive
WSMKGFYL	inactive
WSNFVIMNVPANGAWNFRIR	-1.13 ± 0.76
WSPIGSFRCCGWCSSHQVRI	0.179 ± 0.57
WSRADDRQWGPRLDNVVVMV	0.83 ± 0.45
WSVWVRDSGSRMS	1.22 ± 0.13
WTCVEVHAVYCFGSVDELVL	8.556 ± 0.058
WTCVGSYWSLHFAFSR	4.25 ± 0.12
WTLLNCRGSEVKIGRCTKMG	inactive
WTMMYCTNACYDRYICNYRA	-0.038 ± 1.1
WTVRSARFWMSKQVVFSTTV	0.812 ± 0.5
WVACWTSLLYQVIVIIRGLN	0.975 ± 0.38
WVAKYLFSLEDHVSVRIVDI	0.227 ± 0.56
WVASSSKQRTHLCSGVKWSV	0.539 ± 0.56
WVCLYDVVICRIRLSDRENS	0.713 ± 0.74
WVDIPFW	-0.83 ± 1.1
WVNIYADLRLKVVAGNCCNV	3.38 ± 0.12
WVVVDNHLS	-0.234 ± 0.65
WVWRIRDCLIVSSTPTGMRV	0.806 ± 0.27
WVYLRVFAHKKRAALSWAYS	-0.077 ± 0.34
WWCMLFNGEGGDCDILDFSS	-0.385 ± 0.49
WWDRVRLFRYRLCGSKSLMS	0.429 ± 0.38
WWDTRRHVQCCSAEAIDFME	1.3 ± 0.47
WWFLIYLSSYRGNRCILVWF	-1.98 ± 0.44
WWSARYRGTLD	1.57 ± 0.24

Substance	amyloid nucleation score
WWSKEREYWSLPVGWFMEAV	0.085 ± 0.45
WYALNYTIPEPYWT	0.881 ± 0.48
WYMKILFGKRFSFGGVVSIF	3.74 ± 0.11
WYMQGTLTAMGRGQTQYLSC	0.405 ± 0.64
WYSQVPERALRQWGFFSLGG	0.397 ± 0.46
WYYFYLFDACLSVSCWAIWY	-0.283 ± 1
YAFRSYMKFIYFCSDFFSDR	-2.32 ± 0.75
YALCLKALEFMVMGLPSSRM	-0.049 ± 0.76
YALDL	0.08 ± 0.55
YALWFVIWEVGRGFLVVISF	inactive
YANDFLRLVHVWFREVIIKL	-0.398 ± 1
YAPGVLLSSMNDMAEYKGGI	-0.14 ± 0.28
YAQQIVVLVAGPWWSWTRRG	0.791 ± 0.81
YASYICIQHYCFFLAYYNML	inactive
YAVWLDMGFILIIACVGKYN	-0.747 ± 1.1
YAYAEWERNRWRRDDNLNVE	-0.251 ± 0.38
YCALWTTTE	1.62 ± 0.18
YCIKLRRYQNDKFWFNYTQV	4.35 ± 0.086
YCKFYWNHNVYCLVALWRLW	-0.149 ± 0.79
YCLSIWIDLSFIFVIRVDSG	inactive
YCMCIFATLG	-0.398 ± 0.76
YCRHIAVECSVGLHWHGGTV	3.26 ± 0.15
YCRMYSRNVDGVWHTISKLD	0.108 ± 0.42
YCVSPELDWTSIARGHTFNV	-0.509 ± 1.1
YCWWRSWEPKILRCSLVLVK	0.281 ± 0.44
